Data published in a protein production outcome set (Wang et al. 2014).

Assay: label from the status in PepcDB records

With “MKKLKIVMTGGGSAGHVTPNLALVPKLKELGYEIEYIGTKDGIERSIIEKENIKYNCISSGKLRRYIDIKNFSDPFKVILGIFQSVSILRKKKPNIVFSKGGFVSVPVVIAAHFCRIPVIAHESDITPGLANRIAVPYCTKVCATFPESLNNIKGNKGILTGTPIRDELFKGSKIKGLEICGFTGEKPVLMIIGGSLGSKIIN” the protein production was “failed”.
For “MIQSQINRNIRLDLADAILLSKAKKDLSFAEIADGTGLAEAFVTAALLGQQALPADAARLVGAKLDLDEDSILLLQMIPLRGCIDDRIPTDPTMYRFYEMLQVYGTTLKALVHEKFGDGIISAINFKLDVKKVADPEGGERAVITLDGKYLPTKPF”, the protein production was “not failed”.
With “MPAFSTRHLGAVAAALALTVASPAATASAAPDAPAGLREVMFVGNNWDGTADVIRSTGDFARIGRIDVVPDKAERMAEINADPIKWIYFQAIRNGVGEGHDQLVDDMYSTPDGTSVVVSRPSFADVVSVDLATGDINWRFPVSGYRSDHMAVSPDGTRVAVSASTSNTVHVLDIRTGEQVGSFGTGDKPHENIFTRDGRYIWNMSIGDVNTALDAPWLDWTKGDRRITVVDAKTYRQVKVIDMRQRLDAIGLGDHSDAVRPAVFSPDESKLYFQVSFFNGFFEYDVAGDRITRTKTLPKNPATSEDRTTWVNDSRHHGLSMSPDGARICVAGTMDDYATVVNRDTLEEGPLVPAAKPYWATVSGDGTHCVVSESGADQVTAIDFATGEKSVSVPVGDHPQRVRIGRVAADWTGPSAG” the protein production was “failed”.
With “MIEFLLNYYFMPFNLSVIALLILSMAETIGIYIGLRPSTFLKKFLPRWLSNSPLVNVKFSKVLILVFFLINFSFAGYFLQLCVFAQQQFFISPFYLIIPALIIGIFFTVFMIHCLDQVIKPQVEHQYSSLLGRLATISSGSARPGFSAQARVRDEFGQLHYVQVEPEFGELELQSQVILIRFRQTHYIAKRISASNHLFTPE” the protein production was “failed”.
For “MSYERPLLAPLRAALSRPTPVVHVLIGPRQVGKTTITRQIQESIGISSIYATADSLVPLDSAWIETQWRRAVAEEAASGGPEIRVLILGSSALLMQQGLTESLAGRFFLHRCTHWGYPALEHHHHHH”, the protein production was “failed”.
In the case of “MILSMSGVVLLGIVVFLFFRKDGLKGTHACTCALFGFYLSSTAIAPSIKAGGASLASLLGGIRF”, the protein production is reported as “failed”.
For “MSNPQPEKVRVVVGDDHPLFREGVVRALSLSGSVNVVGEADDGAAALELIKAHLPDVALLDYRMPGMDGAQVAAAVRSYELPTRVLLISAHDEPAIVYQALQQGAAGFLLKDSTRTEIVKAVLDCAKGRDVVAPSLVGGLAGEIRQRAAPVAPVLSAREREVLNRIACGQSIPAIAAELYVAPSTVKTHVQRLYEKLGVSDRAAAVAEAMRQRLLD”, the protein production was “not failed”.
With “LERAKLVSIDRVIDDLSRNIDIEEVSQALAGQVIIDIRHPDAQEDQPLQVPGVEIQTLPFYALNSRFKALDDTRQYLLYCDKGVMSRLHAHHLLSEGHANVRVY” the protein production was “failed”.
With “MNRSNQDITQPTAIIAVVGVGAEQGIGAAVCRRFAQEKFKVYVAGRTLNKVEKVAAAIHRQGGQAVAYVLDAENEQQLQTLFDHLNDQPEALAAVIHNVGGNIPSIFLQSSLKFFSQMWRSTFLSSVLVAQRSLSIFQKQQQGTLIFTGASASLRGKPFFAAFSMGKSALRSYALNLAELYRSQNIHVAHVMVDGMVDGDRVNKALWGLGRLARLTRGTGGLNIDAIAENYWMLYQQNVDLWTHELDLRPYQEKF” the protein production was “failed”.
With “MKKGVLIAFEGIDGSGKSSQATLLKDWIELKRDVYLTEWNSSDWIHDIIKEAKKKDLLTPLTFSLIHATDFSDRYERYILPMLKSGFIVISDRYIYTAYARDSVRGVDIDWVKKLYSFAIKPDITFYIRVSPDIALERIKKSKRKIKPQEAGADIFPGLSPEEGFLKYQGLITEVYDKLVKDENFIVIDGTKTPKEIQIQIRKFVGELIDNSF” the protein production was “not failed”.
For “MVQVEKGHVAVVFLNDPERRNPLSPEMALSLLQALDDLEADPGVRAVVLTGRGKAFSAGADLAFLERVTELGAEENYRHSLSLMRLFHRVYTYPKPTVAAVNGPAVAGGAGLALACDLVVMDEEARLGYTEVKIGFVAALVSVILVRAVGEKAAKDLLLTGRLVEAREAKALGLVNRIAPPGKALEEAKALAEEVAKNAPTSLRLTKELLLALPGMGLEDGFRLAALANAWVRETGDLKEGIRAFFEKRPPRF”, the protein production was “not failed”.
For “MVTIKEYSVPQSLEEAYKILISKKNNVILGGCGFIKLSNKNIGTAIDLKDINLNYIKEDEKNILIGADTSLRSLEIDKTIKNYCSGILSSAVSNIVGVQFRQGARIGASVFSKYGFSDLIPALLVVGAKVRLYNKGILELSEFLDSELSRDILVEVILPKKDAIAVFDSIRKCTGDFSVLNSAMLKENDTYKIAIGARPQKARLALEASNILNKEKDIDKASIVASKELTYGSNMRASKEYRKDMASALVKRMYNAIEEGMYND”, the protein production was “failed”.
In the case of “MGHHHHHHSHSIKPSTNLVFAKVLEKTRHPNANHLNLVKVKANQKVYEIVCGANNFSVHNWVVLAKLNAELANGLKITPRELRGYVSNGMLCAYSEINPQATSFLTSTDLDGILVLDDNYDHYKTPNQIFNLDDVILDLSIPSNRNDLNGYFWIAKELCAYFDFEYVVDATINHRPHKEIIDVRI”, the protein production is reported as “failed”.
With “TLQEYQKRMKKLDQQYKERIRNAELFLQLETEQVERNYIKEKKAAVKEFEDKKVELKENLIAELEEKKKMIENEKLTMELTGDSMEVKPIMTRKLRRRPNDPVPIPDKRRKPAPAQLNYLLTDEQIMEDLRTLNKLKSPKRPASPSSPEHLPATPAESPAQRFEARIEDGKLYYDKRWYHKSQAIYLESKDNQKLSCVISSVGANEIWVRKTSDSTKMRIYLGQLQRGLFVIRRRSAA” the protein production was “failed”.
For “MICRTIVEGTTKISVPVPPPDANFPPSAAPVFYNPEMELNRDINVAATAAFVERLLSKKDILREEIRYVDAFSASGIRGLRIAGEVGIHSTMNDWSHEAFELIKENIKINGLEEKAQATRRNANVLLHEQRFHIVDVDPFGTPSPYLDAAASSAYSMLSVTATDTAPLCGAHLNSGIRKYASVPLNTEYHSEMGLRVLLGACARELAKHEKGMLPLLSHVTRHYVRTYLEVLPGSRKADKTLKSMGFVAHCPRCGFRKPVYGLAVHIEKECPECGGLTKIAGPLWLGPYREPEFCNEVISELEAHPLNTKEKVRKIITFCRDELDIPMFYDQHVICKELGASATGIESLIEALRAGGFEASRTHFTGTSFKTDAPIAEIKKIILALSG”, the protein production was “failed”.
For “MISGNTINHKNNMAGLKSLVKDTALYGLSSMVGRFLNYLLVPLYTAVLPAASGGYGVVTNVYAWAGLIMVLLTFGMETGFFRFANKSEEDPVKVYANSLISVGGISLIFAILCLTFLQPVSHLLEYGDHPDFIGMMIIVMALDAFLCIPFAYLRFKKRPIKFVAIKFVSIIANIVLNLFFLLLCPWLHEHFPAWVDWFYNPTYLVGYIFVSNLITTCLQLFCLIPELRGFAYRVDKQLLKRMLIYSFPILIFGLVGILNQTVDKIIYPFLFADRQEGLVQLGIYGAATKIAMVMAMFTQAFRYAYEPFVFGKQKEGDNRRMYAQAMKYFLIFAMFAFLVVMFYLDLLRYMVAPDYWAGLSVVAIVIGAEIFKGIYFNLSFWYKLIDETRWGAYFSIVGCVIIVGMNVMLVPTYGFVASAWASVAGYAVITILSYWIGQKKYPIHYDLKHLGTYVLFTAVLYVIGEWVPIENIVLRLAFRTVLLLIFMAYVVRKDLPLSQIPVINRIIKKK”, the protein production was “failed”.
In the case of “MADNSATRVRVPSDRNSRRKIKGEVDIISSLPDVILQHILFSFQTKYAIRTSVLSKRWRHEADAINKALSQYTAPKMMNFHLKINKNNSLHHIKKWTEFAMSRNVENMSLDVRFRSNKIPRFYEINSSVKSLSHRLDLHDVIPRHGVSWTSLKKFSLSYCGLPDESAKILSGCPILEWPMQIVAPQIHCLKLRNTQLPCTLVDVSSLTEAEVLDIIIFPVNLSYNADFLHATMLEMLKKLKNVEKLTFSGSYLQNLSVAEKRGVPFPMFKVKALTLEMKHFVISDIERMLQSSPNLKKLTVRAKDNTGKYLYRYFARLESGSMLELKKGV”, the protein production is reported as “failed”.
With “MSLQTKILIIDGDKDNCQKLKGFLEEKGISIDLAYNCEEAIGKIFSNKYDLIFLEIILSDGDGWTLCKKIRNVTTCPIVYMTYINEDQSILNALNSGGDDYLIKPLNLEILYAKVKAILRRMNSYVNNEGHHHHHH” the protein production was “not failed”.
With “PLPEGMQQQFEDTISRDAKQQPTWDRAQAENVRKILESVPPIVVAPEVLELKQKLADVANGKAFLLQGGDCAETFESNTEPHIRANVKTLLQMAVVLTYGASTPVIKMARIAGQYAKPRSSDLDGNGLPNYRGDIVNGVEATPEARRHDPARMIRAYANASAAMNLVRALTSSGTADLYRLSEWNREFVANSPAGARYEALAREIDSGLRFMEACGVSDESLRAADIYCSHEALLVDYERSMLRLATDEEGNEELYDLSAHQLWIGERTRGMDDFHVNFASMISNPIGIKIGPGITPEEAVAYADKLDPNFEPGRLTIVARMGHDKVRSVLPGVIQAVEASGHKVIWQSDPMHGNTFTASNGYKTRHFDKVIDEVQGFFEVHRALGTHPGGIHIEFTGEDVTECLGGAEDITDVDLPGRYESACDPRLNTQQSLELAFLVAEMLRN” the protein production was “failed”.
In the case of “MKDVTIYHNPRCSKSRETLALVEQQGITPQVVLYLETPPSVDKLKELLQQLGFSDARQLMRTKEDLYKTLNLDDRGLTQDQLLQAMADNPKLIERPIVVTQGKARIGRPPEQVLEILK”, the protein production is reported as “not failed”.
For “MGHHHHHHSHLCTNFFIFTGGPGSGKTAVLNELNTWGYLTVSEVARSIIQKQQADGGDAIHTGNRKAFRDLMLEQSIADYCKMQSEEKIVFFDRGIPDLYGYSKAFCGEASKEVNEAVGRFRYNKTVFIFPPWPEIYENDDERQQDYQEALQTYYAVKEGYFDCGYVLLEVPKCPIKDRANFIFQMISKNG”, the protein production was “not failed”.
With “WMLGIPIGGLLAFILGGAALSVFHFGMDYTNRNEFCYSCHIGMDTIVEEYQASPHFKNAQGVIAATCSDCHVPREFFAKIALKIGATADIYHKLKGDITLDNFEAEHRPRLAAEVTQQFIENKSKQCRYCHSVDKMDFEAQGRTVARRHQMMESRDQSCIDCHAGIAHHLPISLDSPET” the protein production was “failed”.
For “EQDIVANGGEVLGSETVGDVSLFFLNPVGHIHHWVTDAWGGSAELKFNSSPWFGNQDVAKFAMDAGASYDSQFYGVELKVTF”, the protein production was “failed”.
With “SFGVKDAIFKIKRSIAGTDSSDSTAYTTASESSPQLKDSHNPFRNKTTSERTIVEEGSLPPVRLNGYLPSTKNKLLTPEMCDEIRTLMPTRIQLYTEWNLLYSLEQHGSSLHSLYSNVAPDSKEFRRVGYVLVIKDRKNGIFGAYSNEAFHPNEHRQYTGNGECFLWKLDKVPDVNISEKEESEQEGKEGKEEGDKEERWRFSGYPYTGVNEFAIYCTSEFLSMGAGDGHYGLLCDDGLLHGVSNPCQTYGNEVLSKEGKKFSIVALEVWRVG” the protein production was “not failed”.
With “EEELPFKVLGDGSYLFEGKTSLSDVRHYLDLPENAFGELGDEVDTLSGLFLEIKQELPHVGDTAVYEPFRFQVTQMDKRRIIEIKIFPFE” the protein production was “not failed”.
For “MPGPKDLDPSSSPRALLGAELRHAREKSGLSQEELGARLFVSGSFIGQLESGTRRMQPEYARLLDDVLDTEDFFRRNCTASAKSKYPEHFAQAAEAEGTAREIKEYASMLIPGLLQTPAYARAVCRAYQPTAPDDAIEELVTARMERARMLADPTGPVLWAVVDESALRRSTGGPGVMAEALRHLAHLMRENRVIVQVLPFEAGAHPAMQGCVKLMDFADAPSLVYLEGVGTGRVDDDPATVGRYRFYYELLMVAALSTTKSLSLIEKLAQNYAHGDHP”, the protein production was “failed”.
